Key:
integrin αvβ3 = molecular target: T1, integrin αvβ3 (Homo sapiens, UniProt P05106+P06756); assay: Cell binding experiment in U87MG tumor cells
T1 construct: endogenous in cells; host or cells: U87MG tumor cells
Description: A cell binding experiment was carried out in HT1080-FAP and U87MG tumor cells, and test results are shown in Part B and Part C of FIG. 52, respectively.

[1] = system: HT1080-FAP tumor-bearing mice; settings: mouse, in vivo
Description: Then, under anaesthesia with isoflurane, the ^68Ga-FAPI-RGD (V-25) group was subjected to MicroPET imaging after administration for 0-240 min, respectively, and the other groups were subjected to MicroPET imaging after administration for 0-120 min, respectively. In FIG. 53, Part A, Part C and Part E show maximum-density MicroPET projection images of the HT1080-FAP tumor-bearing mice (n=3) at different time points after the intravenous injection of the three groups of mice, respectively, and Part B, Part D and Part F show uptake in various organs or tissues (such as blood, liver, kidney, tumors and muscles) of the three groups of mice at different time points after the injection, respectively, where three uptake amounts in each group correspond to, from left to right, 0.5 h, 1 h and 2 h after the injection, respectively. […] A specific binding property of the ^68Ga-FAPI-RGD (V-25) to integrin αvβ3 and FAP in vivo is proven by a blocking experiment. The ^68Ga-FAPI-RGD (V-25) and C(RGDfK) or FAPI-02 were co-injected into HT1080-FAP tumor-bearing mice, and MicroPET imaging results and organ uptake results are shown in FIG. 54. […]

[2] = system: tumors of patients (pancreatic cancer, non small cell lung cancer, small cell lung cancer, nasopharyngeal carcinoma); settings: human, in vivo, iv
Description: In a clinical trial in the real world, a patient with pancreatic cancer (one), a patient with non small cell lung cancer (one), a patient with small cell lung cancer (one) and a patient with nasopharyngeal carcinoma (one) were used as subjects. An intravenous injection dose (1.8-2.2 MBq [0.05-0.06 mCi]/kg) of the ^68Ga-FAPI-RGD (V-25) was calculated based on a body weight of each subject. After intravenous injection was performed for 3 h, data was obtained by a hybrid PET/CT scanner (Discovery MI, GE Health care, Milwaukee, WI, USA). A maximum standard uptake value (SUVmax) was automatically calculated by using a region of interest (ROI) drawn on a transaxial image. The SUVmax value of the ^68Ga-FAPI-RGD (V-25) targeting two targets is higher than that of ^68Ga-FAPI-46 targeting the single target, FAP, in different types of tumors, and the SUVmax value is increased by about 30-50%, proving that the design of targeting two targets can improve the number and utilization efficiency of effective receptors in tumors, thereby improving the uptake in tumors.

T1 sequence (P06756 31-889 limits assumed): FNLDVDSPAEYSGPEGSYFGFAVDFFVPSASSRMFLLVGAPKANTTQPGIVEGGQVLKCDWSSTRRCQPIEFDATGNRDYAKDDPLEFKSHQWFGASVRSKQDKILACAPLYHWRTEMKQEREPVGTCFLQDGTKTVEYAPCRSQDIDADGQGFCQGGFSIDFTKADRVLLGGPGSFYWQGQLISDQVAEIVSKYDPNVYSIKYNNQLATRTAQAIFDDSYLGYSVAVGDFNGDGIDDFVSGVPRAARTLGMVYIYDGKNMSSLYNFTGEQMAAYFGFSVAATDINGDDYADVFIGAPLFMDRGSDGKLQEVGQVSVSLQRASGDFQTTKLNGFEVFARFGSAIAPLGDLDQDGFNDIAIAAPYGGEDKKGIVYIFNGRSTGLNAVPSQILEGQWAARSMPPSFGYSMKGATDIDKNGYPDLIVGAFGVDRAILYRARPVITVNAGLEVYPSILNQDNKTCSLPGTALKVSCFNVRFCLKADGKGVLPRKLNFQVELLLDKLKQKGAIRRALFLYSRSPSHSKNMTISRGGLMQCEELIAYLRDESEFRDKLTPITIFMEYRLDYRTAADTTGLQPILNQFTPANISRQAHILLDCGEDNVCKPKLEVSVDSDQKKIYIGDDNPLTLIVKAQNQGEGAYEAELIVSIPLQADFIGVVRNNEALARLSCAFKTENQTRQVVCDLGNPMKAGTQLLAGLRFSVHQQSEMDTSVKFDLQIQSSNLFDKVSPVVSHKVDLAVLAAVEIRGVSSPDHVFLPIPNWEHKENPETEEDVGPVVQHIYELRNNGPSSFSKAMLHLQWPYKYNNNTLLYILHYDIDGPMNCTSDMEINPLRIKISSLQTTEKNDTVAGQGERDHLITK
T1 sequence (P06756 891-1048 partner limits assumed): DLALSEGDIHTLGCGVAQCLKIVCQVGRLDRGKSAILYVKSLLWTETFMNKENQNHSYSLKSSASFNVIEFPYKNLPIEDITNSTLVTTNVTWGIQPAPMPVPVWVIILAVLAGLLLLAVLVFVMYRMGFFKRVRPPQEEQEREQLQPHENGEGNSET
T1 sequence (P05106 27-788): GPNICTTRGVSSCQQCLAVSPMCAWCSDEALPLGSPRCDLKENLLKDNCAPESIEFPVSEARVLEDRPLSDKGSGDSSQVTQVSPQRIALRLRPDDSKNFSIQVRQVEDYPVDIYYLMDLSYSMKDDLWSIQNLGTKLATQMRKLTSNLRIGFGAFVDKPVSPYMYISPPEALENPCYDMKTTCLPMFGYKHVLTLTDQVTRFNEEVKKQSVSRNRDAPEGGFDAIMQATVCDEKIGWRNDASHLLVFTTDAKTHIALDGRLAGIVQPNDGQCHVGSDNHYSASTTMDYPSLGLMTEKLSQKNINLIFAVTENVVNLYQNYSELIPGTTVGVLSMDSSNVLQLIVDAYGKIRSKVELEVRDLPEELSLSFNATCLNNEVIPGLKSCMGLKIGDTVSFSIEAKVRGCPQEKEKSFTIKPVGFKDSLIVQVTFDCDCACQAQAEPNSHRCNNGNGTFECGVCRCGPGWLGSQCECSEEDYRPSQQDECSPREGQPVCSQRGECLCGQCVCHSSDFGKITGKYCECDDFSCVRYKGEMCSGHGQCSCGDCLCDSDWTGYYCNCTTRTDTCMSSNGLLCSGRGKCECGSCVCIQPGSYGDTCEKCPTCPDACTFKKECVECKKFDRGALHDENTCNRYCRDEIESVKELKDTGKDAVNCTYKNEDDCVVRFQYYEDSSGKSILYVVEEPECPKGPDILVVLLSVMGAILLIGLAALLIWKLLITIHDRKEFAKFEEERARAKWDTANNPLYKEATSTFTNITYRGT

IC50 (integrin αvβ3): 18.9 nM
SMILES: N#C[C@@H]1CCCN1C(=O)CNC(=O)c1ccnc2ccc(OCCCN3CCN(C(=O)CCOCCOCCNC(=O)[C@H](CCC(=O)NCCOCCOCCC(=O)NCCCC[C@@H]4NC(=O)[C@@H](Cc5ccccc5)NC(=O)[C@H](CC(=O)O)NC(=O)CNC(=O)[C@H](CCCNC(=N)N)NC4=O)NC(=O)CN4CCN(CC(=O)O)CCN(CC(=O)O)CC4)CC3)cc12 [^68Ga-FAPI-RGD (V-25), metal not drawn]
tumor uptake compared with monomers [1]: higher
SUVmax value compared with 68Ga-FAPI-46 [2]: higher
increase of SUVmax value over 68Ga-FAPI-46 [2]: 30-50%
